In the supplement of paper PMC12042874:
± gives the uncertainty stated by the source.

Test: amyloid nucleation score (Sup35N fusion, yeast selection) (log enrichment); library NNK2; higher = more nucleation; inactive = no reads after selection
How it was run: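 Peptides of 20 random codons, each fused to Sup35N, were expressed in psi-negative yeast. Cells were induced with 100 μM copper sulfate for 24 hours and grown 7 days at 30°C on medium lacking adenine and uracil, and plasmid inserts before and after selection were Illumina-sequenced. Nucleation scores are DiMSum log enrichments of output over input reads, centred on the mode score of non-aggregating sequences, and sequences under 100 input reads were excluded.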

| Substance | amyloid nucleation score |
| --- | --- |
| TVKCLYMGNGAWKTASSVCG | 0.482 ± 0.38 |
| QWIAGVYV | 3.23 ± 0.048 |
| GSPAVGEGG | 0.697 ± 0.81 |
| RGLAES | -0.2 ± 0.24 |
| YYQVVTNNLSI | 0.129 ± 0.76 |
| FCRSVILSVQMLFKYAIYRF | -1.37 ± 1.1 |
| LKVRKLSLARCVGIHTLQT | 4.4 ± 0.06 |
| ASDVSRVGVGRKMIFSFVRL | -0.031 ± 1 |
| SWCIMALRTF | 0.249 ± 0.65 |
| CMSAIFLPMIEF | -0.714 ± 0.44 |
| LYENWPCFT | -0.199 ± 0.53 |
| SLPIWVRSRVEGLQERISWL | 0.364 ± 0.5 |
| SVYEIYWRVT | -0.348 ± 0.65 |
| CGELY | 0.506 ± 0.66 |
| LVKVHSISMLINSYLGEFCL | 0.045 ± 0.79 |
| RIPHHWMSVGLVIAPRLKSV | -0.365 ± 0.63 |
| GECRRWKFGLWENVPDMSIK | 0.177 ± 0.48 |
| VRGRVAHRRMGSTFVISAES | 0.266 ± 0.74 |
| AVICVSSRIQFMWMLGGDGT | 5.693 ± 0.045 |
| MKRLPDSDIMVVPIVHKINL | inactive |
| LQMLLHDQTEMFEYT | -0.112 ± 0.28 |
| FENYYGSHGDFGVYDKFNHL | inactive |
| TFNIGNELVT | -0.99 ± 0.37 |
| KVIMVLFRFDMSIWGWQTDI | -0.628 ± 0.76 |
| DVSSPVPGRGQCCVDGCWEF | 6.153 ± 0.059 |
| SMYSVYSFYTEIGTL | -0.441 ± 0.48 |

| Substance | amyloid nucleation score |
| --- | --- |
| VVSFSVRSIPCSRVSFMAFS | -0.304 ± 0.54 |
| PVYPAAYWIVSDGGCNVSWE | -0.789 ± 0.37 |
| GCIAIIDWMNLTLFTLLLSS | -0.375 ± 0.76 |
| TGWSGRGMVKSDPYRACGGD | -0.11 ± 0.35 |
| NKNVSTGWYCVIESI | 1.26 ± 0.6 |
| RFTESYSL | -0.935 ± 0.48 |
| AQWSRIDCNTLCKAVPISLA | 5.773 ± 0.056 |
| PILEIYVCGSLMYIFNITIV | 6.691 ± 0.033 |
| SGIMRIE | inactive |
| GMGSVCGIIEYAWTA | 0.627 ± 0.3 |
| RDNRSLTELLNRTMVHFVIM | inactive |
| LSSHPLGLGHTMGHRKF | 0.985 ± 0.48 |
| IFFFWVLMRYW | -0.689 ± 0.55 |
| FLEQFVMSLT | -0.752 ± 0.44 |
| IFANVFANWHVGYLFTGSYY | 4.02 ± 0.081 |
| LHVHLGSEGPLHNKIVDAAK | -0.168 ± 0.42 |
| YSSSKNTVVMSAKSMVRLRT | 0.52 ± 0.56 |
| WPVGLFKSGAISAV | -0.475 ± 0.55 |
| RVLTGWVVA | 0.215 ± 0.76 |
| SALIF | 0.115 ± 1 |
| SHRMTSNNTNSNLLGRKTGS | -0.139 ± 0.19 |
| CMNSSDLECPMGDCVCVVLN | 2.82 ± 0.1 |
| LTLAS | 0.49 ± 0.25 |
| DCPLYRWDTWRLSGSRT | inactive |
| ERHNAELRHPAQYLEFTTLG | 1.38 ± 0.37 |
| TIKTALMYIMRYSFRSYRDF | -1.02 ± 0.61 |

| Substance | amyloid nucleation score |
| --- | --- |
| LANNSERMAAQDEVYSNCRM | -0.506 ± 0.24 |
| RVKRRMSFVVAVAQVMGLVG | 0.475 ± 0.23 |
| YSFLWSVTATFDVTIISGCA | 3.1 ± 0.05 |
| DNWVLYNCFTTSEKLSM | 0.553 ± 0.19 |
| GYLVTLWD | 1.03 ± 0.49 |
| WLNYLGFISFRICH | -1.66 ± 0.41 |
| QSAFSKF | inactive |
| EKLRNQFKP | -0.569 ± 1.1 |
| TTGRWVVLRG | 0.342 ± 0.39 |
| SIIGVYLCFLSFRTNVLWKT | -0.122 ± 0.27 |
| GSLMRTFHILSIAHSTSWCM | 0.381 ± 0.19 |
| KSHHGWSTIRCNRWYIS | inactive |
| DRNYVQNSSTKMHYWASFLT | 1.71 ± 0.17 |
| LWITVRATPRLDRS | 1.03 ± 0.21 |
| SGFGGLEGFIRPSYSLLAGW | -0.424 ± 0.48 |
| YSVDACMMNGSVDKTVSFR | 0.122 ± 1.1 |
| YCHPILMRYKPVYTCHYSLM | 4.86 ± 0.053 |
| GSGIIHTVGLGV | -0.153 ± 0.65 |
| PPRKTIELCSTQP | 0.7 ± 0.35 |
| FALNPAESLHIRYIGLALF | -1.02 ± 0.62 |
| SLFAVQTVVEVVVHV | 0.762 ± 0.41 |
| EFMYGKTARGWFLALTARIF | inactive |
| VTSYHFRMSCAVREALSSRY | 4.26 ± 0.055 |
| AASRWTWC | 1.5 ± 0.16 |
| MERIPVVSDMGRLGFSACRL | 0.821 ± 0.23 |
| NTLGSELLLFA | 1.75 ± 0.2 |

| Substance | amyloid nucleation score |
| --- | --- |
| VRPRGTKRCFFGRNHWRSSF | 0.428 ± 0.66 |
| GLSGFSPQFASATIAQSIP | 1.36 ± 0.23 |
| CSAITEGCKGFVHDVSGVML | -0.27 ± 0.56 |
| TYMWTSLEST | inactive |
| CWVRLIVGMTCYAFKGGSVV | 0.426 ± 0.43 |
| LVSNHASYFIQI | 7.467 ± 0.035 |
| MLLRHNEPVLLRAHYYRESA | -0.13 ± 0.76 |
| VLTMHPVRMFLDFFDDMMCY | inactive |
| SSYGFINYMTS | inactive |
| NATCPRHCRDHQGSYYRHCL | 0.499 ± 0.28 |
| AADRFVAMKICVLCHLKQSL | 1.88 ± 0.25 |
| YEVTRRVSWAFDRMYCRVNR | 0.101 ± 0.55 |
| MSLCGYNYI | inactive |
| CRNQGVCDAGQSLLN | 0.897 ± 0.29 |
| FIDTLNYDWDIVLFWFLGEN | 0.021 ± 0.51 |
| TPRIS | 0.647 ± 0.8 |
| GNVFEHIQSMIRDSFEEHSG | 0.889 ± 0.2 |
| NIRSHKGIVLVG | inactive |
| KGTYNDIMLRYACCMAGVKR | -0.053 ± 0.49 |
| KTSWFGYSWNDHHSIRHQCS | 0.84 ± 0.43 |
| GIGMRQYMNT | 0.823 ± 0.32 |
| GVGVGLYKFLTPCFYGEDDE | 0.594 ± 0.57 |
| LYVLVLMVCYRYGGKF | 4.38 ± 0.063 |
| LAQWLTRLYAK | 1.12 ± 0.4 |
| SVGEFSVRWAACGDLWCW | 0.725 ± 0.2 |
| TAWHFPCRQRDLQLVSKVTG | inactive |

| Substance | amyloid nucleation score |
| --- | --- |
| VCYLLFFKRSSYKFSINHYC | inactive |
| PYLPLRYFCWGSK | -0.249 ± 0.79 |
| TVFDRNMDTGIMCIVMSWDN | -0.318 ± 0.48 |
| PIYLIC | -0.686 ± 0.28 |
| YYSPQSVKEYPRNTYRLIKA | -0.613 ± 0.45 |
| LLFIIMRDLLYPTLEDTFLT | 0.317 ± 0.5 |
| FSGHILGRPFDGRSLVCMS | inactive |
| FSFRVMRHSKKGK | inactive |
| GTCCARAIGRYGYFNCRHRM | -0.017 ± 0.34 |
| DLDRPYRDIFGTT | inactive |
| KWIYQIFPVMALECKGVLH | 2.85 ± 0.15 |
| NCWNLICLKSSFRR | 9.054 ± 0.05 |
| VVLSCFLQRAPQVYSLF | -0.821 ± 1.1 |
| DVVFFVSYW | 3.86 ± 0.098 |
| LLVRFVLVATRRTLSTV | -0.029 ± 1.1 |
| LYTFGFSFLWKYSRFHV | inactive |
| PMMWESESYPLIF | -0.268 ± 0.79 |
| SYAESLPLSDYNAVVRFPWT | -0.304 ± 1.1 |
| LYVYGGSLNPGLVMFVPCWK | -0.774 ± 0.76 |
| HQMQACLVLG | 5.736 ± 0.053 |
| MRLTTGINF | -1.14 ± 0.76 |
| AFRFWFHGSMLVAHLSSWYY | 2.88 ± 0.083 |
| MLDGTSCICVVIEA | -0.035 ± 0.21 |
| SERRGIIGSGLRDGRVLFTT | inactive |
